Sequences and labels used below:
B1: ScMqnA (chorismate dehydratase MqnA) (Streptomyces coelicolor A3(2)) (protein)
chain: MDNSRTRPRVGHIQFLNCLPLYWGLARTGTLLDFELTKDTPEKLSEQLVRGDLDIGPVTLVEFLKNADDLVAFPDIAVGCDGPVMSCVIVSQVPLDRLDGARVALGSTSRTSVRLAQLLLSERFGVQPDYYTCPPDLSLMMQEADAAVLIGDAALRANMIDGPRYGLDVHDLGALWKEWTGLPFVFAVWAARRDYAEREPVITRKVHEAFLASRNLSLEEVEKVAEQAARWEAFDEDTLAKYFTTLDFRFGAPQLEAVTEFARRVGPTTGFPADVKVELLKP
B2: ScMqnA (chorismate dehydratase MqnA) (Streptomyces coelicolor A3(2); N17A) (protein)
chain: B1 chain with N17A
B3: ScMqnA (chorismate dehydratase MqnA) (Streptomyces coelicolor A3(2); Y242F) (protein)
chain: B1 chain with Y242F

Positions count from the first letter of the chain named. Names may count otherwise.

Substrate in this series: C=C(O[C@@H]1C=C(C(=O)O)C=C[C@H]1O)C(=O)O
Description: purified protein. The following applies: 100 mM Tris/HCl pH 7.5, 22 °C, 5 min, 0.05 μM enzyme.
In the case of B1, the Km (in general, the substrate concentration at which the rate is half of its maximum) was found to be 121 ± 38 µM; the Vmax (as a rule, the rate approached at saturating substrate) was 0.458 µmol/min/mg; the kcat (commonly the number of substrate molecules converted per active site and unit of time at saturation) stood at 0.24 ± 0.02 s⁻¹.
The matching figures for B2: 257 ± 87 µM, 0.473 µmol/min/mg and 0.25 ± 0.02 s⁻¹.
For B3, the Km came to 377 ± 106 µM, the Vmax was 1.06 µmol/min/mg and the kcat worked out at 0.56 ± 0.06 s⁻¹.

Values taken from PMC9672406.
